Test [1] deals with TARC level in PBMCs stimulated with HDM and IL-13. Put plainly: TARC level in PBMCs treated by HDM and IL-13. Format: cell-based, human. As to conditions: HDM 10 ug/ml, IL-13 0.5 nM; tralokinumab 10 to 0.16 ug/ml; BFB759 1 ug/ml in combination. How it is done: 0.2 million PBMCs in 100 ul medium (RPMI1640, 10% heat-inactivated FBS) were added to each well of 96 well cell culture plate. BFB759 at multiple concentrations in 50 ul medium was added to the wells. The cells were incubated in the incubator for 45 min. Then, 50 ul HDM solution (final concentration 10 ug/ml) was added to the wells. After 7 days incubation, the supernatant was transferred to a new 96 well plate, and used in TARC ELISA right away, or frozen in −80 C freezer for ELISA later. For the combination studies of BFB759 with other drugs, the single agent or combination of drugs were added to the PBMCs, incubated for 45 min, then HDM solution, or HDM and IL-4 or IL-13 solution were added to the wells. The assay was incubated for 7 days, and the supernatant was harvested for TARC ELISA.
In the data shown in FIG. 16, HDM was used at 10 ug/ml, IL-13 was used at 0.5 nM, BFB759 was used at 1 ug/ml, tralokinumab was titrated from 10 ug/ml to 0.16 ug/ml (4 fold dilution, 4 series). Data shown are mean±s.d.

The next test concerns H69. As to the kind of experiment: Flow cytometry binding to endogenous cell line H69. Format: cell-based. More on the design: key: (−): No binding; (+): Weak binding; (++): Moderate binding; (+++): Strong binding. As to conditions: primary antibody 1 ug/ml. The protocol: (§1) Staining for flow cytometry was performed in 1× cold PBS with 0.5% BSA. Primary antibodies (1 ug/ml) were incubated with live cells on ice for 30 minutes, after a brief wash, cells were incubated with Alexa Fluro® 488-conjugated anti-human IgG secondary antibody @1:1000 (709-546-149, Jackson ImmunoResearch). Acquisition of the data was performed on a MACSQuant® Flow Cytometers (Miltenyi Biotec) and analyzed with FlowJo software.

The next test concerns IL-1α signaling. As to the kind of experiment: IL-1 signaling reporter cell assay, IL-1α. In kind it is cell-based. As to conditions: serial dilution of antibody. The protocol:
(§2) HEK-Blue IL-1β cells (Invivogen, CA) were harvested and plated in technical duplicates at a density of 50,000 cells per well in a 96-well plate. IL1RAP antibodies, or a corresponding human IgG1 control antibody was added to the wells in a concentration range of […]. After incubating cells with antibodies for 30 minutes, IL-1β was added to a final concentration of 0.5 ng/ml, and the plate was incubated overnight. To examine whether any of the antibodies were able to induce IL-1R activation in the absence of IL-1β, samples were incubated with 10 μg/mL antibody without addition of the ligand. The following day, substrate was added to the supernatants, and samples were analyzed for absorbance at 620 nm.
In addition, serial dilution of IL1RAP antibodies was performed to determine EC50 against IL-1β and IL-1α (FIGS. 6B and 6C). Many of these antibodies, including 37E10_15B5 and 44E5_15C5 can block IL-1β and IL-1α signaling with subnanomolar EC50.

For a further test, the system named is IL-1β signaling. Put plainly: IL-1 signaling reporter cell assay (HEK-Blue IL-1β cells), IL-1β. In kind it is cell-based. The protocol: as §2
For another test, the system named is DMS79. As to the kind of experiment: Flow cytometry binding to endogenous cell line DMS79. Format: cell-based. As to conditions: flow cytometry, FIG. 2. How it is done:
as §1

Another test addresses T1, recombinant human IL1RAP (Homo sapiens, UniProt Q9NPH3).
T1 construct: MBP-IL1RAP(S21-T367)-; 8xHis (C); made in house; host or cells: CHO (ExpiCHO transient expression)
As to the kind of experiment: Binding competition binning on Octet. The following applies: Protein A biosensors. The method, boiled down:
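Protein A biosensors loaded with first antibody (10 ug/mL, 5 min), blocked with irrelevant antibody (100 ug/mL, 5 min). Then exposed to recombinant human IL1RAP (1 min) and a second antibody (1 min). Octet interferometry signal increase indicates non-competing pairs; antibodies assigned to bins.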
In general terms: In BLI a coated tip is dipped into the sample, and binding shifts an interference pattern.

The subject of the next test is IL-33 signaling. As to the kind of experiment: IL-33 signaling reporter cell assay (HEK-Blue IL-33 cells). The following applies: antibody 1-10 μg/ml, IL-33 0.5 ng/ml. Format: cell-based. The protocol: FIGS. 7A and 7B show blockage of IL-33 signaling by anti-IL1RAP antibodies. HEK-Blue IL-33 cells (Invivogen, CA) were harvested and plated in technical duplicates at a density of 50,000 cells per well in a 96-well plate. Antibodies, or a corresponding human IgG1 control antibody, was added to the wells in a serial dilution starting at 10 μg/ml (FIG. 7A), or a concentration of 1 and 10 μg/ml (FIG. 7B). After incubating cells with antibodies for 30 minutes, IL-33 was added to a final concentration of 0.5 ng/ml, and the plate was incubated overnight. 24 hours later, substrate was added to the supernatants, and samples were analyzed for absorbance at 620 nm. CBIgG1 (anti-hen egg lysozyme antibody, CrownBio™) was included as a negative control.
as §2, with “IL-33” for “IL-1β”, “plate.” for “plate. IL1RAP”, “ST2” for “IL-1R”, “IL-33,” for “IL-1β,”

In a further test the test system is EOL-1. As to the kind of experiment: Flow cytometry binding to endogenous cell line EOL-1. In kind it is cell-based, human. The arrangement: key to binding to EOL-1 by flow cytometry: (−): No binding; (+): Weak binding; (++): Moderate binding; (+++): Strong binding. Summed up: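 Live cells stained on ice for 30 minutes with primary antibody at 1 ug/ml in cold PBS/0.5% BSA, then washed and detected with Alexa Fluor 488 anti-human IgG (1:1000). Binding read by flow cytometry on endogenous IL1RAP-positive lines.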
On the technique in general: In flow cytometry, cells or beads pass a laser one at a time.

In a further test the test system is Karpas 299. Put plainly: Flow cytometry binding to endogenous cell line Karpas 299. Format: cell-based, human. As to conditions: flow cytometry, FIG. 2. The protocol:
as §1
Over 1,000 hits were identified that bind strongly to CHO-human IL1RAP, but not parental CHO cells. 68 clones were selected for molecular cloning. Based on unique CDR3 sequences from the heavy chain variable domain, 35 antibodies from 13 families were confirmed by binding in IL1RAP positive cell lines EOL1 and Karpas 299 (see Table 8) by flow cytometry (MACSQuant® www.miltenybiotec.com).

B1: tralokinumab: IL-13 neutralizing antibody, produced by Bluefin Biomedicine according to the published protein sequence (antibody, chains of the INN, looked up, V domains shown)
VH: QVQLVQSGAEVKKPGASVKVSCKASGYTFTNYGLSWVRQAPGQGLEWMGWISANNGDTNYGQEFQGRVTMTTDTSTSTAYMELRSLRSDDTAVYYCARDSSSSWARWFFDLWGRGTLVTVSS
VL: SYVLTQPPSVSVAPGKTARITCGGNIIGSKLVHWYQQKPGQAPVLVIYDDGDRPSGIPERFSGSNSGNTATLTISRVEAGDEADYYCQVWDTGSDPVVFGGGTKLTVL
For the molecule B1, the “inhibition of TARC level in HDM and IL-13 stimulated cells” value in test [1] is “dose dependent inhibition”.

B2: 44E5_15C5: human anti-IL1RAP antibody, VH SEQ ID NO: 71, VL SEQ ID NO: 73 (antibody, V domains shown)
VH: QVQLVESGGGVVQPGRSLRLSCAASGFTFRSHGMHWVRQAPGKGLEWVAVIWYDGSSDYYADSVKGRFTISRDNSKNTLFLQMNSLSAEDTAVYYCARENVYGSGWFFDYWGQGTLVTVSS
VL: EIVMTQSPATLSVSPGERASLSCRASQSVGSNLAWYQQKPGQAPRLLIFGASTRATGIPARFSGSRSGTEFTLTISSLQSEDFALYYCQQYNNWPPWTFGQGTKLEIK
B2: the “binding to H69 by flow cytometry” value in the test on H69 was “(−)”. Besides, in the test on IL-1α signaling, the “EC50 against IL-1α” value is “subnanomolar”. The “inhibition of IL1R1 / IL-1 signaling” value with IL-1β signaling (HEK-Blue IL-1β cells, antibody 1-10 pg/ml, IL-1β 0.5 ng/ml) is “potent inhibition”. Besides, in the test with IL-1β signaling (serial dilution of antibody, reporter assay), the “EC50 against IL-1β” value is recorded as “subnanomolar”. The “binding to IL1RAP negative cell line DMS79” value in the test with DMS79 is listed as “lack of binding”. Besides, the “competition for binding, bin (2)” value with recombinant human IL1RAP is reported as “competed with each other”. Moreover, in the test with IL-33 signaling, the “inhibition of IL-33 signaling” value is on record as “partially inhibit”. Moreover, in the test on EOL-1 (flow cytometry, FIG. 2), the “binding to IL1RAP positive cell line EOL1” value is “specific binding”. Besides, in the test with EOL-1 (primary antibody 1 ug/ml), the “binding to EOL-1 by flow cytometry” value is reported as “(+++)”. Also, the “binding to IL1RAP positive cell line Karpas 299” value in the test with Karpas 299 is “specific binding”.

(Values after patent US20260008856A1, “METHODS OF TREATING DISEASE USING ANTI-IL1RAP ANTIBODIES AND ANTIBODY DRUG CONJUGATES” (Bluefin Biomedicine, Inc., priority 2022, published 2026).)
